# From patent publication US20250090676A1 (SUTRO BIOPHARMA, published 2025)
# Target: T1, human FOLR1-HIS (human, UniProt P15328 25-233)
# T1 construct: Analyte of the Biacore assay; also called FolRα-ECD; extracellular domain of FOLR1; not shown: HIS tag
# Experiment: SPR (Biacore), antibody captured on anti-Fc, human FOLR1-HIS analyte, 25 C
# T1 sequence (P15328 25-233 limits assumed): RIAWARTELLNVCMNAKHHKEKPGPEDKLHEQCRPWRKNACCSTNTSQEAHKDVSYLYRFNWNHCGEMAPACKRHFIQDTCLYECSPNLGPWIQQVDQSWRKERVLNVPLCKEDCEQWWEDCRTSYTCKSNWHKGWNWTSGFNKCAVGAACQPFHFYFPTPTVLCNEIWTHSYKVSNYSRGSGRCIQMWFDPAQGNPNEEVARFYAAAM
Binder,Kd,koff,kon
"SRP1848-A01 (antibody, V domains shown, IgG with common trastuzumab LC, cell-free expressed, HIS- and FLAG-tagged; also called Antibody 1) VH: EVQLVESGGGLVQPGGSLRLSCAASGFNITRYSIHWVRQAPGKGLEWVAGILPESGGTSYADSVKGRFTISADTSKNTAYLQMNSLRAEDTAVYYCARHIYPWDWFSNYVLDYWGQGTLVTVSS VL: not shown",1.87 nM,0.00155 s⁻¹,829000 M⁻¹ s⁻¹
"SRP1848-F04 (antibody, V domains shown, IgG with common trastuzumab LC, cell-free expressed, HIS- and FLAG-tagged; also called Antibody 39) VH: EVQLVESGGGLVQPGGSLRLSCAASGFNISNYSIHWVRQAPGKGLEWVGEIYPIDGITDYADSVKGRFTISADTSKNTAYLQMNSLRAEDTAVYYCARGSWFWRSGYGYYLDYWGQGTLVTVSS VL: not shown",1.32 nM,0.00108 s⁻¹,815000 M⁻¹ s⁻¹
"SRP1848-A08 (antibody, V domains shown, IgG with common trastuzumab LC, cell-free expressed, HIS- and FLAG-tagged; also called Antibody 6) VH: EVQLVESGGGLVQPGGSLRLSCAASGSNIRKHSIHWVRQAPGKGLEWVGSIYPNDGTTDYADSVKGRFTISADTSKNTAYLQMNSLRAEDTAVYYCARGSWFWRAGYGYYLDYWGQGTLVTVSS VL: not shown",2.42 nM,0.00119 s⁻¹,493000 M⁻¹ s⁻¹
"SRP1848-C04 (antibody, V domains shown, IgG with common trastuzumab LC, cell-free expressed, HIS- and FLAG-tagged; also called Antibody 20) VH: EVQLVESGGGLVQPGGSLRLSCAASGFNIRHYSIHWVRQAPGKGLEWVGEIYPGPGNTDYADSVKGRFTISADTSKNTAYLQMNSLRAEDTAVYYCARGSLSWRAGYGYYLDYWGQGTLVTVSS VL: not shown",3.86 nM,0.00499 s⁻¹,1.29e+06 M⁻¹ s⁻¹
"SRP1848-C07 (antibody, V domains shown, IgG with common trastuzumab LC, cell-free expressed, HIS- and FLAG-tagged; also called Antibody 22) VH: EVQLVESGGGLVQPGGSLRLSCAASGFNIRKYSIHWVRQAPGKGLEWVGDIFPIDGITDYADSMKGRFTISADTSKNTAYLQMNSLRAEDTAVYYCARGSWSWPAGYGYYQDYWGQGTLVTVSS VL: not shown",2.21 nM,0.00189 s⁻¹,856000 M⁻¹ s⁻¹
"SRP1848-C01 (antibody, V domains shown, IgG with common trastuzumab LC, cell-free expressed, HIS- and FLAG-tagged; also called Antibody 18) VH: EVQLVESGGGLVQPGGSLRLSCAASGFNIGNSYIHWVRQAPGKGLEWVGGVTPNDGYTDYADSVKGRFTISADTSKNTTYLQMNSLRAEDTAVYYCARGSWFWRAGYGYYLDYWGQGALVTVSS VL: not shown",3.05 nM,–,–
"SRP1848-D04 (antibody, V domains shown, IgG with common trastuzumab LC, cell-free expressed, HIS- and FLAG-tagged; also called Antibody 26) VH: EVQLVESGGGLVQPGGSLRLSCAASGFNISHYSIHWVRQAPGKGLEWVGEIYPRDGITDYADSVKGRFTISADTSKNTAYLQMNSLSAEDTAVYYCARGYWFWRSGYGYYLDYWGQGTLVTVSS VL: not shown",3.48 nM,0.00173 s⁻¹,497000 M⁻¹ s⁻¹
"SRP1848-C03 (antibody, V domains shown, IgG with common trastuzumab LC, cell-free expressed, HIS- and FLAG-tagged; also called Antibody 19) VH: EVQLVESGGGLVQPGGSLRLSCAASGFNIGVYSIHWVRQAPGKGLEWVGEIYPIDGNTDYADSVKGRFTISADTSKNTAYLQMNSLRAEDTAVYYCARGSWAWRSGYSYYLDYWGQGTLVTVSS VL: not shown",1.11 nM,0.00152 s⁻¹,1.36e+06 M⁻¹ s⁻¹
"SRP1848-B04 (antibody, V domains shown, IgG with common trastuzumab LC, cell-free expressed, HIS- and FLAG-tagged; also called Antibody 11) VH: EVQLVESGGGLVQPGGSLRLSCAASSFNISNHSIHWVRQAPGKGLEWVGEIYPVDGITDYADSVKGRFTISADTSKNTAYLQMNSLRAEDTAVYYCARGRYSWRAGYSYYLDYWGQGTLVTVSS VL: not shown",1.5 nM,0.00117 s⁻¹,780000 M⁻¹ s⁻¹
"SRP1848-B10 (antibody, V domains shown, IgG with common trastuzumab LC, cell-free expressed, HIS- and FLAG-tagged; also called Antibody 16) VH: EVQLVESGGGLVQPGGSLRLSCAASGFNTTTKSIHWVRQAPGKGLEWVGEIYPRDGITDYADSVKGRFTISADTSKNTAYLQMNSLRAEDTAVYYCARGGWHWRSGYSYYLDYWGQGTLVTVSS VL: not shown",2.18 nM,–,–
"SRP1848-B01 (antibody, V domains shown, IgG with common trastuzumab LC, cell-free expressed, HIS- and FLAG-tagged; also called Antibody 9) VH: EVQLVESGGGLVQPGGSLRLSCAASGFNIRNYSIHWVRQAPGKGLEWVGEIYPVDGITDYADSVKGRFTISADTSKNTAYLQMNSLRAEDTAVYYCARGFWSWPSGYSYFLDYWGQGTLVTVSS VL: not shown",3.67 nM,0.00416 s⁻¹,1.13e+06 M⁻¹ s⁻¹
"SRP1848-D07 (antibody, V domains shown, IgG with common trastuzumab LC, cell-free expressed, HIS- and FLAG-tagged; also called Antibody 28) VH: EVQLVESGGGLVQPGGSLRLSCAASGFNISKYYIHWVRQAPGKGLEWVGGISPNDGYTDYADSVKGRFAISADTSKNTAYLQMNSLRAEDTAVYYCARGFWAWRSGYGYYLDYWGQGTLVTVSS VL: not shown",4.7 nM,0.00511 s⁻¹,1.09e+06 M⁻¹ s⁻¹
"SRP1848-B05 (antibody, V domains shown, IgG with common trastuzumab LC, cell-free expressed, HIS- and FLAG-tagged; also called Antibody 12) VH: EVQLVESGGGLVQPGGSLRLSCAASGFNISNYYIHWVRQAPGKGLEWVGGISPIDGYTDYADSMKGRFTISADTSKNTAYLQMSSLRAEDTAVYYCARGSWFWQSGYGYYLDYWGQGTLVTVSS VL: not shown",9.07 nM,0.00885 s⁻¹,976000 M⁻¹ s⁻¹
"SRP1848-A10 (antibody, V domains shown, IgG with common trastuzumab LC, cell-free expressed, HIS- and FLAG-tagged; also called Antibody 8) VH: EVQLVESGGGLVQPGGSLRLSCAASGFNIRKYSIHWARQAPGKGLEWVGDIFPIDDITDYADSVKGRFTISADTSKNTAYLQMNSLRAEDTAVYYCARGSWSWPSGHSYYLDYWGQGTLVTVSS VL: not shown",2.74 nM,0.0033 s⁻¹,1.2e+06 M⁻¹ s⁻¹
"SRP1848-B07 (antibody, V domains shown, IgG with common trastuzumab LC, cell-free expressed, HIS- and FLAG-tagged; also called Antibody 14) VH: EVQLVESGGGLVQPGGSLRLSCAASGFNISRFYIHWVRQAPGKGLEWVGGISPYDGFTDYADSVKGRFTISADTSKNTAYLQMNSLRAEDTAVYYCARGSWSWPAGYGYYQDYWGQGTLVTVSS VL: not shown",5.35 nM,0.00378 s⁻¹,706000 M⁻¹ s⁻¹
"SRP1848-B06 (antibody, V domains shown, IgG with common trastuzumab LC, cell-free expressed, HIS- and FLAG-tagged; also called Antibody 13) VH: EVQLVESGGGLVQPGGSLRLSCAASGFNISNYYIHWVRQAPGKGLEWVGGITPIDGYTDYADSVKGRFTISADTSKNTAYLQMNSLRAEDTAVYYCARGFWSWPSGYGYYQDYWGQGTLVTVSS VL: not shown",5.1 nM,0.00317 s⁻¹,620000 M⁻¹ s⁻¹
"SRP1848-A02 (antibody, V domains shown, IgG with common trastuzumab LC, cell-free expressed, HIS- and FLAG-tagged; also called Antibody 2) VH: EVQLVESGGGLVQPGGSLRLSCAASGFNISGFRIHWVRQAPGKGLEWVAGIYPESGATYYADSVKGRFTISADTSKNTAYLQMNSLRAEDTAVYYCARHLYVWDWVLDHVLDYWGQGTLVTVSS VL: not shown",16.8 nM,0.00882 s⁻¹,525000 M⁻¹ s⁻¹

# Further binders by falling Kd, results first:
Kd,koff,kon,Binder
10.1 nM,0.0108 s⁻¹,1.07e+06 M⁻¹ s⁻¹,"SRP1848-D09 (antibody, V domains shown, IgG with common trastuzumab LC, cell-free expressed, HIS- and FLAG-tagged; also called Antibody 29) VH: EVQLVESGGGLVQPGGSLRLSCAASGFNISNYYIHWVRQAPGKGLEWVGGISPNDGYTDYADSVKGRFTISADTSKNTAYLQMNSLRAEDTAVYYCARGSWSWRHGYGYYLDYWGQGTLVTVSS VL: not shown"
7.63 nM,0.00859 s⁻¹,1.13e+06 M⁻¹ s⁻¹,"SRP1848-B03 (antibody, V domains shown, IgG with common trastuzumab LC, cell-free expressed, HIS- and FLAG-tagged; also called Antibody 10) VH: EVQLVESGGGLVQPGGSLRLSCAASGFNISMKYIHWVRQAPGKGLEWVGGITPIDGMTDYADSVKGRFTISADTSKNTAYLQMNSLRAEDTAVYYCARGSWSWPSGYSYYLDYWGQGTLVTVSS VL: not shown"
4.29 nM,0.00454 s⁻¹,1.06e+06 M⁻¹ s⁻¹,"SRP1848-C05 (antibody, V domains shown, IgG with common trastuzumab LC, cell-free expressed, HIS- and FLAG-tagged; also called Antibody 21) VH: EVQLVESGGGLVQPGGSLRLSCAASGFNIRKYSIHWVRQAPGKGLEWVGDIFPIDGINDYADSVKGRFTISADTSKNTAYLQMNSLRAEDTAVYYCARGSWSWKAGYGYYLDYWGQGTLVTVSS VL: not shown"
4.26 nM,0.00661 s⁻¹,1.55e+06 M⁻¹ s⁻¹,"SRP1848-B09 (antibody, V domains shown, IgG with common trastuzumab LC, cell-free expressed, HIS- and FLAG-tagged; also called Antibody 15) VH: EVQLVESGGGLVQPGGSLRLSCAAGGFNITNYYIHWVRQAPGKGLEWVGGITPVDGYTDYADRVKGRFTISADTSKNTAYLQMNSLRAEDTAVYYCARGAWSWRSGYGYYMDYWGQGTLVTVSS VL: not shown"
4.03 nM,0.00363 s⁻¹,899000 M⁻¹ s⁻¹,"SRP1848-C10 (antibody, V domains shown, IgG with common trastuzumab LC, cell-free expressed, HIS- and FLAG-tagged; also called Antibody 23) VH: EVQLVESGGGLVQPGGSLRLSCAASGFNIRTYYIHWVRQAPGKGLEWVGGISPIDGYTDYADSVKGRFTISADTSKNTAYLQMNSLRAEDTAVYYCARGSWSWPAGYGYYLDYWGQGTLVTVSS VL: not shown"
3.51 nM,–,–,"SRP1848-A06 (antibody, V domains shown, IgG with common trastuzumab LC, cell-free expressed, HIS- and FLAG-tagged; also called Antibody 4) VH: EVQLVESGGGLVQPGGSLRLSCAASGFNIGNSYIHWVRQAPGKGLEWVGGITPIDGNTDYADSVKGRFTISADTSKNTAYLQMNSLRAEDTAVYYCARGAWSWRSGYGYYIDYWGQGTLVTVSS VL: not shown"
2.93 nM,–,–,"SRP1848-D05 (antibody, V domains shown, IgG with common trastuzumab LC, cell-free expressed, HIS- and FLAG-tagged; also called Antibody 27) VH: EVQLVESGGGLVQPGGSLRLSCAASGFNISISYIHWVRQAPGKGLEWVGGISPIDGYTDYADSVKGRFTISADTSKNTAYLQMNSLRAEDTAVYYCARGSWSWRAGYGYYLDYWGQGTLVTVSS VL: not shown"
2.41 nM,0.00205 s⁻¹,851000 M⁻¹ s⁻¹,"SRP1848-D02 (antibody, V domains shown, IgG with common trastuzumab LC, cell-free expressed, HIS- and FLAG-tagged; also called Antibody 24) VH: EVQLVESGGGLVQPGGSLRLSCAASGFNISHNYIHWVRQAPGKGLEWVGGITPQDGYTDYADSVKGRFTISADTSKNTAYLQMNRLRAEDTAVYYCARGAWSWRAGYGYYLDYWGQGTLVTVSS VL: not shown"
2.03 nM,0.00326 s⁻¹,1.61e+06 M⁻¹ s⁻¹,"SRP1848-A04 (antibody, V domains shown, IgG with common trastuzumab LC, cell-free expressed, HIS- and FLAG-tagged; also called Antibody 3) VH: EVQLVESGGGLVQPGGSLRLSCAASGFNIDQSSIHWVRQAPGKGLEWVGVIYPVDGTTDYADSVKGRFTISADTSKNTAYLQMNSLRAEDTAVYYCARGAWSWRSGYGYYIDYWGQGTLVTVSS VL: not shown"
1.82 nM,–,–,"SRP1848-A09 (antibody, V domains shown, IgG with common trastuzumab LC, cell-free expressed, HIS- and FLAG-tagged; also called Antibody 7) VH: EVQLVESGGGLVQPGGSLRLSCAASGFNIRKQSIHWVRQAPGKGLEWVGSIFPNDGTTDYADSVKGRFTISADTSKNTAYLQVNSLRAEDTAVYYCARGSWFWRSGYGYFLEYWGQGTLVTVSS VL: not shown"
1.52 nM,0.00186 s⁻¹,1.22e+06 M⁻¹ s⁻¹,"SRP1848-B11 (antibody, V domains shown, IgG with common trastuzumab LC, cell-free expressed, HIS- and FLAG-tagged; also called Antibody 17) VH: EVQLVESGGGLVQPGGSLRLSCAASGFNIGNNSIHWVRQAPGKGLEWVGDISPIDGFTDYADSVKGRFTISADTSKNTAYLQMNSLRAEDTAVYYCARGSWSWRAGYGYYLDYWGQGTLVTVSS VL: not shown"
0.855 nM,0.000866 s⁻¹,1.01e+06 M⁻¹ s⁻¹,"SRP1848-A07 (antibody, V domains shown, IgG with common trastuzumab LC, cell-free expressed, HIS- and FLAG-tagged; also called Antibody 5) VH: EVQLVESGGGLVQPGGSLRLSCAASGFNIGYHSIHWVRQAPGKGLEWVGEIFPVDGTTDYADSVKGRFTISADTSKNTAYLHMNSLRAEDTAVYYCARGFWAWRSGYGYYLDYWGQGTLVTVSS VL: not shown"
